US20250197503A1 (SHANGHAI INSTITUTE OF MATERIA MEDICA CHINESE ACADEMY OF …, published 2025)
Where a chain is given by its changes, count along the chain named.

Legend:
[1] = target: T1, human PD-L1 protein (ELISA antigen) (human, UniProt Q9NZQ7 19-238, limits assumed); test: ELISA; PD-L1 protein on NeutrAvidin plate, crude nanobody, anti-HA detection; positive = absorbance more than three times control
T1 construct: also called PD-L1-biotin protein
Experimental: After several rounds of panning, TG1 competent cells in the logarithmic phase of growth were infected with the eluted phages, gradiently diluted and spread on the plate for overnight culture. 96 clones were picked and inoculated into a 96-well round-bottom plate with 100 μL of culture medium per well and left to be incubated overnight as the master plate. Then 10 μL of overnight cultured bacterial solution was pipetted into a 96-well deep-bottom plate with 1 mL of culture medium per well to induce nanobody expression which was then subjected to crude purification. The 96-well ELISA plate was coated with 5 μg/mL NeutrAvidin solution at 4° C., 700 rpm, overnight. The next day, 2% skim milk powder was added to block the plate at room temperature and washed 3 times with a solution containing bovine serum albumin BSA. 100 μL 3 μg/mL PD-L1 protein was added and incubated at room temperature for 30 minutes, then washed. The crudely extracted nanobody was added and incubated at room temperature for 1 h followed by washing. Mouse anti-HA primary antibody was added and the mixture was incubated at room temperature for 1 hour followed by washing. Goat anti-mouse alkaline phosphatase-labeled secondary antibody was added and the mixture was incubated at room temperature for 1 hour followed by washing. Alkaline phosphatase colorimetric solution was added for 10 minutes, and the absorption value was detected at 405 nm on a microplate reader. A well with an absorption value that is more than three times the absorption value of the control group is preliminarily determined as a positive well. The positive clones were transferred to a shaking tube for culture in order to extract the plasmid and then subjected to sequencing. Finally, 11 candidate positive clones were obtained.

[2] = target: T2, human PD-L1 on stably transfected cell line HEK293T/hPD-L1 (human, UniProt Q9NZQ7 19-290); test: flow cytometry on HEK293T/hPD-L1 cells, 10 ug/ml nanobody, anti-human IgG Fc (FITC)
T2 construct: whole, on cells
T2 sequence (Q9NZQ7 19-290): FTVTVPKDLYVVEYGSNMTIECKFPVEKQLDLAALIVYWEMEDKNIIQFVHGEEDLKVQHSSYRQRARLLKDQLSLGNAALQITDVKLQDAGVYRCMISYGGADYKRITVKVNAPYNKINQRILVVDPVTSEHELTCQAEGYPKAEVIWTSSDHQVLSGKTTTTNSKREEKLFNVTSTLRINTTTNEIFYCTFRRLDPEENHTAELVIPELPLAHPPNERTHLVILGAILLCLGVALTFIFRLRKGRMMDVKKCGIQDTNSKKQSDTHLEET
Experimental: The stably transfected cell line HEK293T/hPD-L1 was digested and centrifuged, and the supernatant was removed. The cells were washed once with PBS and the cell density was adjusted to 2.5×10⁶ cells/mL. 100 μL of cell suspension was added to each cell sample, i.e., 2.5×10⁵ cells/sample. Different anti-human PD-L1 candidate nanobodies (at a concentration of 10 μg/ml) were added into the samples. The samples were incubated in a 4° C. refrigerator for 20 min and then centrifuged to remove the supernatant, and washed once with PBS. The diluted antibody anti-human IgG Fc (FITC) was used as a secondary antibody to resuspend the above cells. The abtained samples were incubated in a 4° C. refrigerator for 20 min and centrifuged to remove the supernatant. The cells were washed twice with PBS, transferred to a flow tube; and detected on a flow cytometer to obtain the binding activity of the candidate nanobody with human PD-L1, as shown in FIG. 1.

[3] = target: T1, human PD-L1 protein (ELISA antigen); test: relative to original antibody h_Nb2 (SEQ ID NO. 5); ELISA comparison per Example 10
[4] = target: T1, human PD-L1 protein (ELISA antigen); test: relative to original antibody h_Nb1 (SEQ ID NO. 1); ELISA comparison per Example 10

T1 sequence (Q9NZQ7 19-238 limits assumed): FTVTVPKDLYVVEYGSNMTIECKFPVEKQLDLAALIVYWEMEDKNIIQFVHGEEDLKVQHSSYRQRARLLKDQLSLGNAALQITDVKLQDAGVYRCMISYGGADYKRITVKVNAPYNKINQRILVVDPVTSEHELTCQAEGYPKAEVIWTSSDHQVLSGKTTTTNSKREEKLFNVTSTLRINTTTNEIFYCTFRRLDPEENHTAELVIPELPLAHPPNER

B1: h_Nb30 VHH (VHH)
VHH: DVQLQESGGGLVQPGESLRVSCAASGFTFSNYYMTWVRQAPGKGLEWVSFLNPSSSERFYADSVKGRFTISRDNAKNTLDLLMHSLKPEDTALYYCARHLKYNWAPNYDYWGQGTQVTVSS
binding result [1]: binds

B2: h_Nb9 VHH (VHH)
VHH: DVQLQESGGGLVQPGGSLRLSCASSGSIFGLGVKGWYRQPPGNQREMVAQIISGGRISYADSVKGRFTISRDNAKNTVYLQMNSLKPEDTAVYYCNAWGPGQRNYWGRGTQVTVSS
binding result [1]: binds

B3: h_Nb5 VHH (VHH)
VHH: DVQLQESGGGAVQSGESLRLSCAASGRDLMFYDVAWFRQAPGKEREGVSYIRSSGTLTKYADSVKGRFTISRDNDKNTVSLQMNSLNPEDTAKYYCAARLQSATSHSDLREDEFNSWGQGTQVTVSS
binding result [1]: binds

B4: h_Nb4 VHH (VHH)
VHH: DVQLQESGGGLVQAGGSLRLSCAAPSRMFSGYTMGWYRQAPGKQRELVAQIANGGFTDYIDSVKGRFSISRDTVLNMMYLQMNSLKPEDTAVYYCNLVLVNGIPTRNWGQGTQVTVSS
binding result [1]: binds

B5: h_Nb2 (expressed from pFUSE-hIgG1-Fc) (Fc fusion)
chain: DVQLQESGGGLVQPGGSLRLSCAASGFTFGDRWMYWLRQAPGKGLEWVSSINPAGRSTYYADSVKGRFTISRDNAKNTLYLQMNSLKSEDTAVYYCTKDPGGYQKGQGTQVTVSS
notes: Candidates were cloned into pFUSE-mIgG2b-Fc and pFUSE-hIgG1-Fc; not shown: human IgG1 Fc as encoded by the pFUSE-hIgG1-Fc vector
binding result [2]: binds

B6: h_Nb2 VHH (VHH)
VHH: B5 chain
binding result [1]: binds

B7: h_Nb2_G30F (VHH)
VHH: B5 chain with G30F
notes: also called 88
Improved value of relative affinity [3]: 5.11

B8: h_Nb2_P100E (VHH)
VHH: B5 chain with P100E
notes: also called 97
Improved value of relative affinity [3]: 3.98

B9: h_Nb2_G30R (VHH)
VHH: B5 chain with G30R
notes: also called 87
Improved value of relative affinity [3]: 6.23

B10: h_Nb2_F29W (VHH)
VHH: B5 chain with F29W
notes: also called 94
Improved value of relative affinity [3]: 1.44

B11: h_Nb2_G101W (VHH)
VHH: B5 chain with G101W
notes: also called 91
Improved value of relative affinity [3]: 5.92

B12: h_Nb2_G30W (VHH)
VHH: B5 chain with G30W
notes: also called 89
Improved value of relative affinity [3]: 10

B13: h_Nb2_F29R (VHH)
VHH: B5 chain with F29R
notes: also called 93
Improved value of relative affinity [3]: 1.46

B14: h_Nb2_G101Y (VHH)
VHH: B5 chain with G101Y
notes: also called 92
Improved value of relative affinity [3]: 8.48

B15: h_Nb2_P100R (VHH)
VHH: B5 chain with P100R
notes: also called 95
Improved value of relative affinity [3]: 7.21

B16: h_Nb2_P100Q (VHH)
VHH: B5 chain with P100Q
notes: also called 96
Improved value of relative affinity [3]: 3.41

B17: h_Nb2_G101R (VHH)
VHH: B5 chain with G101R
notes: also called 90
Improved value of relative affinity [3]: 6.5

B18: h_Nb12 VHH (VHH)
VHH: DVQLQESGGGLVQAGGSLRLSCAASGRTFSSRAMGWFRQAPGKEREFVAAISGSGRNTYYADSVKGRFTISRDNAKNSVNLQMNSLKPEDTAVYYCNAAGGGITIATMTQRTQYDYWGQGTQVTVSS
binding result [1]: binds

B19: h_Nb13 VHH (VHH)
VHH: DVQLQESGGGLVQPGGSLRLSCAASGSIFSINAMGWYRQAPGKSRELVAAITSGGSTNYADSVKGRFTISRDTAKNTVYLLMNSLEPEDTAVYYCNVERRRPPHYLSEYDFDWGQGTQVTVSS
binding result [1]: binds

B20: h_Nb26 VHH (VHH)
VHH: B19 VHH with S25P, S30R, S44Q, K64Q, T73N, L81Q, E86K, L106Y, E108D
binding result [1]: binds

B21: h_Nb1 VHH (VHH)
VHH: DVQLQESGGGLVQPGGSLRLSCAASGFTFSSYAMSWVRQAPGKGLEWVSDINSGGDNTDYADSVKGRFTISRDNAKNTLYLQMNSLKPEDTAVYYCARGPKLCFSSWGQGTQVTVSS
binding result [1]: binds

B22: h_Nb1 (expressed from pFUSE-hIgG1-Fc) (Fc fusion)
chain: B21 VHH
notes: as for B5
binding result [2]: binds

B23: h_Nb1_A61Q (VHH)
VHH: B21 VHH with A61Q
notes: also called 73
Improved value of relative affinity [4]: 4.66

B24: h_Nb1_D59F (VHH)
VHH: B21 VHH with D59F
notes: also called 77
Improved value of relative affinity [4]: 5.12

B25: h_Nb1_D62Y (VHH)
VHH: B21 VHH with D62Y
notes: also called 79
Improved value of relative affinity [4]: 5.8

B26: h_Nb1_D59R (VHH)
VHH: B21 VHH with D59R
notes: also called 75
Improved value of relative affinity [4]: 4.28

B27: h_Nb1_G99W (VHH)
VHH: B21 VHH with G99W
notes: also called 85
Improved value of relative affinity [4]: 6.16

B28: h_Nb1_D62W (VHH)
VHH: B21 VHH with D62W
notes: also called 78
Improved value of relative affinity [4]: 11.7

B29: h_Nb1_D59M (VHH)
VHH: B21 VHH with D59M
notes: also called 76
Improved value of relative affinity [4]: 4.9

B30: h_Nb1_G99Q (VHH)
VHH: B21 VHH with G99Q
notes: also called 84
Improved value of relative affinity [4]: 6.16

B31: h_Nb1_A61N (VHH)
VHH: B21 VHH with A61N
notes: also called 72
Improved value of relative affinity [4]: 5.13

B32: h_Nb1_G99R (VHH)
VHH: B21 VHH with G99R
notes: also called 83
Improved value of relative affinity [4]: 12.1

B33: h_Nb1_G99Y (VHH)
VHH: B21 VHH with G99Y
notes: also called 86
Improved value of relative affinity [4]: 7.02

B34: h_Nb1_A61K (VHH)
VHH: B21 VHH with A61K
notes: also called 74
Improved value of relative affinity [4]: 4.12

B35: h_Nb1_C103M (VHH)
VHH: B21 VHH with C103M
notes: also called 81
Improved value of relative affinity [4]: 3.38

B36: h_Nb1_C103K (VHH)
VHH: B21 VHH with C103K
notes: also called 80
Improved value of relative affinity [4]: 3.31

B37: h_Nb1_C103W (VHH)
VHH: B21 VHH with C103W
notes: also called 82
Improved value of relative affinity [4]: 3.83
